In PMC12990809:

Key:
Assay in all cases: pulldown
Settings in all cases: 20 nM protein, 1.5 uM RNA pool; 20 mM HEPES pH 7.8, 70 mM KCl, 10 mM NaCl, 10% glycerol, 2 mM DTT, 0.1 ug/uL BSA; 30 min, 4 C
DDX53 (Homo sapiens) = DDX53 (Homo sapiens) (UniProt Q86TM3)
[1] = target: T1, SCHCODRAFT_72118 N130T;T236A;D255N (Schizophyllum commune) (UniProt A0ACF2F787)
T1 sequence: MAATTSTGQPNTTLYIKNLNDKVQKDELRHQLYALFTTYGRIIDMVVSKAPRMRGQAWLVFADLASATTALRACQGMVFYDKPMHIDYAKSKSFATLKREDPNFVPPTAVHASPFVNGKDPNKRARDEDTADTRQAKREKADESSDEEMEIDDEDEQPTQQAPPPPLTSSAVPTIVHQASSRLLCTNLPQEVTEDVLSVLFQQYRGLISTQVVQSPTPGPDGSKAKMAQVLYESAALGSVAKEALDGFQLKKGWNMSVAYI

[2] = target: T2, Tb11.03.0550 L37P (Trypanosoma brucei) (UniProt Q387J8)
T2 sequence: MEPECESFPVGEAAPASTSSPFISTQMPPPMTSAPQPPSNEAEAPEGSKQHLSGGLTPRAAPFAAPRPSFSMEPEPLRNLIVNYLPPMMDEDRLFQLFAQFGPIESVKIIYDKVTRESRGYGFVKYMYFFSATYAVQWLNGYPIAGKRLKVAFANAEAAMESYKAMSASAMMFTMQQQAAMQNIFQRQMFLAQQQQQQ

[3] = target: T3, BATDEDRAFT_13807 (Batrachochytrium dendrobatidis) (UniProt F4NYD0)
T3 sequence: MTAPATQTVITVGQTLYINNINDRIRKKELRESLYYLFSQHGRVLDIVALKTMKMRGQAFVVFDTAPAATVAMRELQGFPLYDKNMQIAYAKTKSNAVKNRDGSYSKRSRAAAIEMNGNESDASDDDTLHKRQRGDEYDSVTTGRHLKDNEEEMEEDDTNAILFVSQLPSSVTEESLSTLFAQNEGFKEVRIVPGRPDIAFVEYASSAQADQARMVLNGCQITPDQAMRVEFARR

[4] = target: T4, Tb10.389.1650 (Trypanosoma brucei) (UniProt Q389D4)
T4 sequence: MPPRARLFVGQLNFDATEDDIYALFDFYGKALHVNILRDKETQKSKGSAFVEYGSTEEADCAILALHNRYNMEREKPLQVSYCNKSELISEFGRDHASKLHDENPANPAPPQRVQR

[5] = target: T5, Tb927.3.3960 (Trypanosoma brucei) (UniProt Q57WD2)
T5 sequence: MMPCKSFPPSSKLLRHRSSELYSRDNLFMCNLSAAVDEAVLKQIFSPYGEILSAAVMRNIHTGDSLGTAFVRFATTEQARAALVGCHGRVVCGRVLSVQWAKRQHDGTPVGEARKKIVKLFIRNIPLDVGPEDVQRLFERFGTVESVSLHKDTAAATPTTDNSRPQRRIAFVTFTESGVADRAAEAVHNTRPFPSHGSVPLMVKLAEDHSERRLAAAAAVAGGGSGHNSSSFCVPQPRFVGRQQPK

[6] = target: T6, LmjF.32.2810 (Leishmania major) (UniProt Q4Q4Z4)
T6 sequence: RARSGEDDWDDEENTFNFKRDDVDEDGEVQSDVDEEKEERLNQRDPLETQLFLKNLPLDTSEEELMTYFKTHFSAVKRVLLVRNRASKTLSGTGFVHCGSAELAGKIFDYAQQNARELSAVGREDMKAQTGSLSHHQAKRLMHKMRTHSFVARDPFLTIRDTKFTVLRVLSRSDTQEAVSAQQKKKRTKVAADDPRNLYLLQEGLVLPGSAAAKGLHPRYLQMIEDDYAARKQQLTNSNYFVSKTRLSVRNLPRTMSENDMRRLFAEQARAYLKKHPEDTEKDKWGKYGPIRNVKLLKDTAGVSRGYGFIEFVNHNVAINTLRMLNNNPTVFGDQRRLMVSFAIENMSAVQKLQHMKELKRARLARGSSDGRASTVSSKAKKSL

[7] = target: T7, LmjF.29.0680 D253N (Leishmania major) (UniProt E9ADS0)
T7 sequence: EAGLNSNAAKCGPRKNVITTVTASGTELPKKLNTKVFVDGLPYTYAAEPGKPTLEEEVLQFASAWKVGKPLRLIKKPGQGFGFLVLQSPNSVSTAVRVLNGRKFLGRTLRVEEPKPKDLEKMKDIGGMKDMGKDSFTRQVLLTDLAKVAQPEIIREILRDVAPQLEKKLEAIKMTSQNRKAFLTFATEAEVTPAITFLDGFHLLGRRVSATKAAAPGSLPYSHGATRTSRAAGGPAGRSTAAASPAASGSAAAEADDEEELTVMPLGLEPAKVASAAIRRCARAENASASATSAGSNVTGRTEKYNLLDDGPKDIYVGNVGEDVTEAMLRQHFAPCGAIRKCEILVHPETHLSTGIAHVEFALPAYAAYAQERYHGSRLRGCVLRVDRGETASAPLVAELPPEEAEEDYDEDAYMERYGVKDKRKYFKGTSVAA

[8] = target: T8, LmjF.30.2180 (Leishmania major) (UniProt Q4Q775)
T8 sequence: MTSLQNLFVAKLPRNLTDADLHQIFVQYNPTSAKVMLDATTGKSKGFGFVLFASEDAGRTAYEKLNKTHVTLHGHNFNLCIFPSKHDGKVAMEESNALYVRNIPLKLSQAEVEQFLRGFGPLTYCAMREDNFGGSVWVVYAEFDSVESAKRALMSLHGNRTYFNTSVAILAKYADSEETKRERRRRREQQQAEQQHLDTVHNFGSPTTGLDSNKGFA

mex3c (Danio rerio) = target: T9, mex3c (Danio rerio) (UniProt A0A8M1REM5)
T9 sequence: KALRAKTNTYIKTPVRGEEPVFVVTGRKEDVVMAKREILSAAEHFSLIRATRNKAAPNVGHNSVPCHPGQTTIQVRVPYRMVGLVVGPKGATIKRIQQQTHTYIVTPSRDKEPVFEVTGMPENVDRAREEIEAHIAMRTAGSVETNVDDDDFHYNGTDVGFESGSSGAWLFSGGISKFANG

Sequence of DDX53 (Homo sapiens) (Q86TM3 whole entry): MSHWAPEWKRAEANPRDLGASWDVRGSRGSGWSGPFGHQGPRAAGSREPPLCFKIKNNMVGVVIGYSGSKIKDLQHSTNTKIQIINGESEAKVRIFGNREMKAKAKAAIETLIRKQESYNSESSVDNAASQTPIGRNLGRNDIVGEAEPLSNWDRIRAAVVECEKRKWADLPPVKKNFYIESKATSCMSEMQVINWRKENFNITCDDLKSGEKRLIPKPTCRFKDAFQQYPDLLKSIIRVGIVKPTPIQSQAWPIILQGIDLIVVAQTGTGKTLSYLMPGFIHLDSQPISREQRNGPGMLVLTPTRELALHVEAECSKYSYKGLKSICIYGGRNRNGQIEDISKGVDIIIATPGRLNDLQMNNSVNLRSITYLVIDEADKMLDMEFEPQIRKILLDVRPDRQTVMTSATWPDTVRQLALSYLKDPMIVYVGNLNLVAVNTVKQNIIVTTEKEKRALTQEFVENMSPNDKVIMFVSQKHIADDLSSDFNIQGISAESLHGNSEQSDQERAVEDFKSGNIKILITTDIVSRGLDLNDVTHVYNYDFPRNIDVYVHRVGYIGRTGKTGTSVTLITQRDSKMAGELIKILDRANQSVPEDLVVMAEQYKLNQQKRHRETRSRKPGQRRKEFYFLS

AGAAUAA [RNAcompete motif RNCMPT00743]
binding signal (z-score (mean of top ten 7-mers)) (DDX53 (Homo sapiens)): 6.26

UGCACA [RNAcompete motif RNCMPT00723]
binding signal (z-score (mean of top ten 7-mers)) [1]: 8.86

UUAUUUU [RNAcompete motif RNCMPT00749]
binding signal (z-score (mean of top ten 7-mers)) [2]: 13.9

AUNGCAC [RNAcompete motif RNCMPT00739]
binding signal (z-score (mean of top ten 7-mers)) [3]: 7.82

UUUGCU [RNAcompete motif RNCMPT00732]
binding signal (z-score (mean of top ten 7-mers)) [4]: 18.9

CAUUGU [RNAcompete motif RNCMPT00735]
binding signal (z-score (mean of top ten 7-mers)) [5]: 23

GUAGNA [RNAcompete motif RNCMPT00716]
binding signal (z-score (mean of top ten 7-mers)) [6]: 6.94

GAAGGA [RNAcompete motif RNCMPT00720]
binding signal (z-score (mean of top ten 7-mers)) [7]: 7.49

UCAAAA [RNAcompete motif RNCMPT00715]
binding signal (z-score (mean of top ten 7-mers)) [8]: 22.8

AGAGUA [RNAcompete motif RNCMPT00727]
binding signal (z-score (mean of top ten 7-mers)) (mex3c (Danio rerio)): 10.1
